Assay results reported in publication PMC4121237, “Engineering Neprilysin Activity and Specificity to Create a Novel Therapeutic for Alzheimer’s Disease” (PLoS ONE, 2014).
Where “and” joins values, the source holds several entries; their conditions need not be identical. Identical values can stand only once.

Assays:
Angiotensin = assay: Steady-state kinetics of peptide cleavage, fluorescence polarisation; assay type: biochemical
Method: (§1) For detailed kinetic characterisation of peptide cleavage by NEP, a similar assay to that above was used with modifications based on a published method. Peptides were synthesised by Bachem using 9-fluorenylmethyloxycarbonyl solid-phase peptide synthesis and were labelled with a N-terminal 5(6)FAM via a ε-aminocaproic acid linker and a C-terminal biotin via a lysine linker (Table S1). Purified peptides were supplied as trifluoroacetate salts with a purity ≥95%. The assay was performed in a 96-well microtitre plate and contained 50 mM HEPES (pH 7.4), 100 mM NaCl, 0.05% (w/v) BSA (Buffer A), 1–200 µM peptide substrate and 1–500 nM NEP protein. Reactions were incubated at 37°C before being stopped at various time points between 2 and 360 min by transferring 5 µL aliquots to 245 µL Buffer A containing 2 mM 1,10-phenanethroline (Sigma) and 2 µM avidin (Invitrogen). For peptide substrates containing disulphide bonds, 1 mM tris(2-carboxyethyl)phosphine (Thermo Scientific) was added to the stop solution. The fluorescence polarisation of the resulting solution was measured on a Victor plate reader and the amount of substrate cleaved was determined with reference to substrate-only controls with and without avidin. Initial rates were obtained by linear regression of the linear regions of time courses. Enzyme velocity was plotted as a function of substrate concentration and the Michaelis-Menten equation was used to fit the data, giving the parameters kcat and KM.

Aβ1–40 [1] = assay: as above; assay type: biochemical; conditions: for increase in kcat/KM (catalytic efficiency) on Aβ1–40 over wild-type NEP: relative to wild-type NEP
Method: as §1

GRP = assay: as above; assay type: biochemical; conditions: substrate GRP
Method: as §1

Glucagon = assay: as above; assay type: biochemical; conditions: substrate Glucagon
Method: as §1

Neurokinin A = assay: as above; assay type: biochemical; conditions: substrate Neurokinin A
Method: as §1

Neurotensin = assay: as above; assay type: biochemical
Method: as §1

Somatostatin 28 = assay: as above; assay type: biochemical; conditions: substrate Somatostatin 28
Method: as §1

Substance P = assay: as above; assay type: biochemical; conditions: substrate Substance P
Method: as §1

α-endorphin = assay: as above; assay type: biochemical; conditions: substrate α-endorphin
Method: as §1

γ-endorphin = assay: as above; assay type: biochemical; conditions: substrate γ-endorphin
Method: as §1

Endothelin-1 = assay: Steady-state kinetics of endothelin-1 cleavage, stopped assay with RP-HPLC; assay type: biochemical
Method: Kinetic parameters for cleavage of endothelin-1 by NEP were determined using a stopped assay in which the amount of substrate cleaved was measured using reversed-phase HPLC (RP-HPLC). Endothelin-1 was incubated at 12.5–200 µM in the presence of wild type NEP or NEPv and reactions were stopped after 10 min at 37°C by the addition of an equal volume of 1∶1∶1 water:acetonitrile:TFA containing 2 mM tris(2-carboxyethyl)phosphine (Thermo Scientific). RP-HPLC spectra were recorded using an Agilent 1260 Infinity system. Injections of 20 µL were made for each sample and analytes were separated by elution on an Agilent Polaris C8-A stationary phase column (4.6×100 mm, 3 µm) at 1.5 mL min^−1 using a linear binary gradient of 10–90% acetonitrile in water with 0.1% (v/v) TFA over 15 minutes at 40°C. Signal intensity for intact endothelin-1 was monitored at 210 nm and relative peak area was determined by manual integration of the baseline. Kinetic parameters were derived from the activity data as described above.

[2] = tested on: panel of off-target peptides; assay: Steady-state kinetics across the panel of off-target peptides; assay type: biochemical
Method: For detailed kinetic characterisation of peptide cleavage by NEP, a similar assay to that above was used with modifications based on a published method. Peptides were synthesised by Bachem using 9-fluorenylmethyloxycarbonyl solid-phase peptide synthesis and were labelled with a N-terminal 5(6)FAM via a ε-aminocaproic acid linker and a C-terminal biotin via a lysine linker (Table S1). Purified peptides were supplied as trifluoroacetate salts with a purity ≥95%. The assay was performed in a 96-well microtitre plate and contained 50 mM HEPES (pH 7.4), 100 mM NaCl, 0.05% (w/v) BSA (Buffer A), 1–200 µM peptide substrate and 1–500 nM NEP protein. […] The fluorescence polarisation of the resulting solution was measured on a Victor plate reader and the amount of substrate cleaved was determined with reference to substrate-only controls with and without avidin. […]
Kinetic parameters for cleavage of endothelin-1 by NEP were determined using a stopped assay in which the amount of substrate cleaved was measured using reversed-phase HPLC (RP-HPLC). […] RP-HPLC spectra were recorded using an Agilent 1260 Infinity system. […] Signal intensity for intact endothelin-1 was monitored at 210 nm and relative peak area was determined by manual integration of the baseline. […]
Kinetic parameters for cleavage of a panel of peptides by wild-type NEP and NEPv were determined (Figure 3 and Table 2). […]

Aβ1–40 [3] = assay: Endpoint degradation assay with ELISA read-out; assay type: biochemical, human; conditions: 1 hour at room temperature; Aβ40 ELISA
Method: (§2) Supplementary file pone.0104001.s001.tif: Figure S1 Degradation of Aβ1–40 and Aβ1–42 by NEP wild-type and NEPv. Measurement of the degredation of Aβ1–40 (A) and Aβ1–42 (B) was performed by incubating peptide and either wild-type NEP (▪) or NEPv (Δ) for 1 hour at room temperature. The reaction was stopped by the addition of 1.10-phenanthroline to a final concentration of 10 µM. 50 µl (Aβ40 analysis) or 100 µl (Aβ42 analysis) of the reaction mix was transferred to an ELISA plate. Aβ40 and Aβ42 concentrations after degradation were determined using Invitrogen human Aβ40 ELISA kit (Invitrogen, California, US), and Innotest β-amyloid RUO (1–42) ELISA (Innogenetics, Gent, Belgium). […] (TIF) Click here for additional data file.

Aβ1–42 = target: T1, Aβ1–42 (Homo sapiens, UniProt P05067); assay: Endpoint degradation assay with ELISA read-out; assay type: biochemical; conditions: 1 hour at room temperature; Aβ42 ELISA
T1 construct: Aβ 1-42^a
Method: as §2

[4] = substrate Angiotensin, 37°C, pH 7.4
[5] = substrate Aβ 1–40, 37°C, pH 7.4
[6] = ratio of wild-type NEP kcat/KM to that of the mutant
[7] = substrate Neurotensin, 37°C, pH 7.4
[8] = substrate Endothelin-1 (unlabelled), RP-HPLC, 10 min at 37°C

T1 sequence (P05067 672-713): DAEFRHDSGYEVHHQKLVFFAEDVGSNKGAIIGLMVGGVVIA

B1: NEPv: lead variant at round 2, human NEP ectodomain with the two mutations G399V and G714K (protein, UniProt P08473 52-750, looked up, variant G399V G714K)
extracellular domain: YDDGICKSSDCIKSAARLIQNMDATTEPCTDFFKYACGGWLKRNVIPETSSRYGNFDILRDELEVVLKDVLQEPKTEDIVAVQKAKALYRSCINESAIDSRGGEPLLKLLPDIYGWPVATENWEQKYGASWTAEKAIAQLNSKYGKKVLINLFVGTDDKNSVNHVIHIDQPRLGLPSRDYYECTGIYKEACTAYVDFMISVARLIRQEERLPIDENQLALEMNKVMELEKEIANATAKPEDRNDPMLLYNKMTLAQIQNNFSLEINGKPFSWLNFTNEIMSTVNISITNEEDVVVYAPEYLTKLKPILTKYSARDLQNLMSWRFIMDLVSSLSRTYKESRNAFRKALYVTTSETATWRRCANYVNGNMENAVGRLYVEAAFAGESKHVVEDLIAQIREVFIQTLDDLTWMDAETKKRAEEKALAIKERIGYPDDIVSNDNKLNNEYLELNYKEDEYFENIIQNLKFSQSKQLKKLREKVDKDEWISGAAVVNAFYSSGRNQIVFPAGILQPPFFSAQQSNSLNYGGIGMVIGHEITHGFDDNGRNFNKDGDLVDWWTQQSASNFKEQSQCMVYQYGNFSWDLAGGQHLNGINTLGENIADNGGLGQAYRAYQNYIKKNGEEKLLPGLDLNHKQLFFLNFAQVWCGTYRPEYAVNSIKTDVHSPKNFRIIGTLQNSAEFSEAFHCRKNSYMNPEKKCRVW
modifications: extracellular domain
Angiotensin; [4]
  Km: 13 ± 2 µM
  kcat: 0.14 ± 0.007 s⁻¹
Angiotensin; substrate Angiotensin, ratio of wild-type NEP kcat/KM to that of the mutant
  Fold change in kcat/KM: 87
Angiotensin; substrate angiotensin
  reduction in kcat relative to wild-type NEP: 60 fold
Aβ1–40 [1]; substrate Aβ1–40
  increase in kcat relative to wild-type NEP: ~2 fold
  increase in kcat/KM (catalytic efficiency) on Aβ1–40 over wild-type NEP: 18.5 fold and 20 fold
Aβ1–40 [1]; [5]
  Km: 14 ± 1 µM
  kcat: 2.1 ± 0.1 s⁻¹
Aβ1–40 [1]; substrate Aβ 1–40, ratio of wild-type NEP kcat/KM to that of the mutant
  Fold change in kcat/KM: 0.055
Aβ1–40 [1]; substrate Aβ1–40, listed as Neprilysin variant G399V/G714K
  increase in kcat/KM (catalytic efficiency) on Aβ1–40 over wild-type NEP: approximately 20 fold
GRP
  reduction in kcat relative to wild-type NEP: 67 fold
GRP; 37°C, pH 7.4
  Km: 120 ± 20 µM
  kcat: 0.39 ± 0.05 s⁻¹
GRP; [6]
  Fold change in kcat/KM: 52
Glucagon; 37°C, pH 7.4
  Km: 30 ± 6 µM
  kcat: 1.2 ± 0.1 s⁻¹
Glucagon; [6]
  Fold change in kcat/KM: 4.2
Neurokinin A; 37°C, pH 7.4
  Km: 34 ± 7 µM
  kcat: 1.1 ± 0.1 s⁻¹
Neurokinin A; [6]
  Fold change in kcat/KM: 52
Neurotensin; [7]
  Km: 16 ± 3 µM
  kcat: 0.039 ± 0.002 s⁻¹
Neurotensin; substrate Neurotensin, ratio of wild-type NEP kcat/KM to that of the mutant
  Fold change in kcat/KM: 320
Neurotensin; substrate neurotensin
  reduction in kcat relative to wild-type NEP: 340 fold
Somatostatin 28; 37°C, pH 7.4
  Km: 47 ± 20 µM
  kcat: 0.086 ± 0.02 s⁻¹
Somatostatin 28; [6]
  Fold change in kcat/KM: 87
Substance P; 37°C, pH 7.4
  Km: 92 ± 10 µM
  kcat: 12 ± 0.9 s⁻¹
Substance P; [6]
  Fold change in kcat/KM: 8.7
α-endorphin; 37°C, pH 7.4
  Km: 6.5 ± 1 µM
  kcat: 0.089 ± 0.003 s⁻¹
α-endorphin; [6]
  Fold change in kcat/KM: 26
γ-endorphin; 37°C, pH 7.4
  Km: 4.4 ± 0.6 µM
  kcat: 0.16 ± 0.006 s⁻¹
γ-endorphin; [6]
  Fold change in kcat/KM: 10
Endothelin-1; [8]
  Km: 57 ± 20 µM
  kcat: 0.059 ± 0.008 s⁻¹
Endothelin-1; substrate Endothelin-1, ratio of wild-type NEP kcat/KM to that of the mutant
  Fold change in kcat/KM: 13
[2]; other (off-target) peptides, relative to wild-type
  reduction in activity on other peptides: ≤ 3,200 fold
[2]; panel of 16 peptides
  average specificity switch (ratio of the fold change in kcat/KM on Aβ1–40 to that on other peptides): 5,300 fold
Aβ1–40 [3]
  EC50: 21.3 nM
Aβ1–42
  EC50: 19.5 nM
